Assay results taken from patent publication US20060088510A1 (BRIGHAM AND WOMEN S HOSPITAL, published 2006).
No end group written: not given here.

Biological target: T1, Streptavidin (UniProt P22629 37-163, limits assumed)
T1 construct: also called 35S-streptavidin; Radiolabeled Streptavidin (35S-SLR labeled)
Assay: radioligand binding assay, 35S-streptavidin on 1:100 biotinylated:nonbiotinylated self-assembling peptides (1% w/v)
Excerpt: We have previously shown that biotinylated peptides can be synthesized and incorporated with self-assembling (Davis, et al., Circ Res 97: 8-15 (2005)). To allow sufficient distance from the peptide to allow streptavidin binding (Livnah, et al., Proc Natl Acad Sci USA 90:5076-5080 (1993); Pugliese, et al., J. Mol Biol 231:698-710 (1993)), the biotin was attached to the peptide by two N-e-Fmoc-e-aminocaproic acids.

T1 sequence (P22629 37-163 limits assumed): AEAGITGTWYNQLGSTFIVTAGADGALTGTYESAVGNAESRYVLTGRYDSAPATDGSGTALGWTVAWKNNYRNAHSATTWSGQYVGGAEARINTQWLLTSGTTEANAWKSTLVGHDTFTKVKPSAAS

B1: Biotinylated RAD16-II peptide (peptide)
peptide: RARADADARARADADA-NH2
modifications: not fully specified (N-terminus); also: biotin linked via 2 aminocaproic acid groups, attachment residue not given here
notes: Synthetic self-assembling peptide; In the assays it was mixed 1:100 with nonbiotinylated RAD16-II (1% final peptide weight/volume) and assembled into fibers; also called biotinylated self-assembling peptides; biotinylated peptides
Kd: 190 nM
